Reference: PMC6800368, “Rotational symmetry of the structured Chip/LDB-SSDP core module of the Wnt enhanceosome” (Proceedings of the National Academy of Sciences of the …, 2019)
Several values for one entry are separate records, joined by “and”; a condition that tells them apart may be missing. Equal entries are not always repeated. Each block holds one molecule with its values, some of them ahead of it.

Columns and labels:
[1] = target: Lip-SSDP_(1–92) Mα3 (F66E L69A Y70A) (Drosophila) (UniProt Q9VEB9); experiment: SEC-MALS; MBP-LCCD_(Chip) (WT or Mα6) coexpressed with Lip-SSDP_(1–92) (WT, V65K, Mα3 or ML), purified; Superdex-200 10/300, 2 mg/mL, PBS, 1 mM DTT; PAGE of SEC fractions
[2] = target: the molecule itself; experiment: crystal structure; DD (XLdb1 20-200) bound to a DARPin; 2.0 to 2.59 Å depending on the DARPin
[3] = target: the molecule itself; experiment: SEC-MALS; Lip-SSDP_(1–92) WT and mutants alone; Superdex-200 10/300, loaded at 2 mg/mL, PBS, 1 mM DTT; self-association of SSDP dimers into tetramers
MBP-LCCD_(Chip) = target: T1, MBP-LCCD_(Chip) (Drosophila, UniProt Q7KVG9-2 384-436); experiment: SEC-MALS; MBP-LCCD_(Chip) (WT or Mα6) coexpressed with Lip-SSDP_(1–92) (WT, V65K, Mα3 or ML), purified; Superdex-200 10/300, 2 mg/mL, PBS, 1 mM DTT; PAGE of SEC fractions; settings: both partners purified
T1 construct: Drosophila Chip, LCCD, residues 384-436; also called Chip-LCCD (residues 384 to 436); source: E. coli BL21(DE3)-RIL, bicistronic coexpression with Lip-SSDP_(1–92), purified (Ni-NTA, gel filtration)
T1 sequence (looked up): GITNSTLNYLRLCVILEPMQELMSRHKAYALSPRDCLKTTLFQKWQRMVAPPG

[4] = target: the molecule itself; experiment: as above
[5] = target: the molecule itself; experiment: crystal structure; SSDP_(1–86), tags removed; vapor diffusion at 19 °C; 2.4 Å

- stoichiometry N [1]: 2
Molecule: Lip-SSDP_(1–92) Mα3 (F66E L69A Y70A) (from UniProt Q9VEB9 1-92) (domain or fragment)

B1: DD (XLdb1 20-200) (domain or fragment, Xenopus laevis, UniProt P70060 20-200, looked up)
chain: GIGRHTPYGNQTDYRIFELNKRLQNWTEECDNLWWDAFTTEFFEDDAMLTITFCLEDGPKRYTIGRTLIPRYFRSIFEGGATELYYVLKHPKESFHNNFVSLDCDQCTMVTQHGKPMFTQVCVEGRLYLEFMFDDMMRIKTWHFSIRQHRELIPRSILAMHAQDPQMLDQLSKNITRCGLS
notes: Xenopus laevis Ldb1 (XLdb1), dimerization domain, residues 20-200; also called dimerization domain of XLdb1; source: E. coli BL21(DE3)-RIL, purified (Ni-NTA, gel filtration)
- binding result [2]: binds

B2: Lip-SSDP_(1–92) (domain or fragment, Drosophila, UniProt Q9VEB9 1-92, looked up)
chain: MYGKSKTSAVPSDAQAREKLALYVYEYLLHVGAQKAAQTFLSEIRWEKNITLGEPPGFLHTWWCVFWDLYCAAPERRDQCDHSSEAKAFHDY
notes: Drosophila SSDP, residues 1-92; Obligate dimer; dimers and tetramers are seen by SEC-MALS; also called SSDP-N; WT Lip-SSDP_(1–92); source: E. coli BL21(DE3)-RIL, purified (Ni-NTA, gel filtration); alone or coexpressed with MBP-LCCD from a bicistronic vector
- stoichiometry N [3]: 2 and 4
- stoichiometry N (MBP-LCCD_(Chip)): ~2 SSDP chains per LCCD (4:2, from the printed formula) and ~2 SSDP chains per LCCD

- stoichiometry N (MBP-LCCD_(Chip)): 2 SSDP chains per LCCD
B3: Lip-SSDP_(1–92) ML (I50E L52E) (domain or fragment, Drosophila, UniProt Q9VEB9 1-92, looked up)
chain: MYGKSKTSAVPSDAQAREKLALYVYEYLLHVGAQKAAQTFLSEIRWEKNETEGEPPGFLHTWWCVFWDLYCAAPERRDQCDHSSEAKAFHDY
notes: Drosophila SSDP, residues 1-92; also called SSDP ML; source: E. coli BL21(DE3)-RIL, purified (Ni-NTA, gel filtration); alone or coexpressed with MBP-LCCD
- binding result [3]: binds

B4: Lip-SSDP_(1–92) V65K (domain or fragment, Drosophila, UniProt Q9VEB9 1-92, looked up)
chain: MYGKSKTSAVPSDAQAREKLALYVYEYLLHVGAQKAAQTFLSEIRWEKNITLGEPPGFLHTWWCKFWDLYCAAPERRDQCDHSSEAKAFHDY
notes: Drosophila SSDP, residues 1-92; also called SSDP V65K; source: E. coli BL21(DE3)-RIL, purified (Ni-NTA, gel filtration); alone or coexpressed with MBP-LCCD
- stoichiometry N [4]: 4

B5: SSDP_(1–86) (domain or fragment, Drosophila, UniProt Q9VEB9 1-86, looked up)
chain: MYGKSKTSAVPSDAQAREKLALYVYEYLLHVGAQKAAQTFLSEIRWEKNITLGEPPGFLHTWWCVFWDLYCAAPERRDQCDHSSEA
notes: also called SSDP-N; N-terminal dimerization domain of SSDP; source: E. coli BL21(DE3)-RIL, purified (Ni-NTA, gel filtration)
- binding result [5]: binds
